A word on the pKd: it is −log10 of the Kd, conventionally taken in molar units.

What all share (assay): ITC; DBD (500 μM) titrated into NRD (50 μM) at 19 °C; 150 mM NaCl, 20 mM Tris, 1 mM BME (pH 8); MicroCal VP-ITC; mean of three technical replicates
Assay [1] concerns the target B-Myb NRD^510–600 T538A (human) (UniProt P10244).
The target of assay [2] is B-Myb NRD^510–600 S577A (human) (UniProt P10244).
Assay [3] deals with B-Myb NRD^510–600 (C-terminal half of the NRD) (human) (UniProt P10244).
B-Myb NRD^510–600 (C-terminal half of the NRD) (human), sequence (P10244 510-600): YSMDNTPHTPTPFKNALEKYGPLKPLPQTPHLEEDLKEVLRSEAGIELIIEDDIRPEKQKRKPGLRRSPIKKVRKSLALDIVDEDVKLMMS

pKd: −log10 of the molar value.

B-Myb NRD^510–600 S577A (human), sequence (P10244 510-600 S577A): as the sequence (P10244 510-600) above, with S68A counted along it
B-Myb NRD^510–600 T538A (human), sequence (P10244 510-600 T538A): as the sequence (P10244 510-600) above, with T29A counted along it

For the substance “B-Myb DNA-binding domain (B-Myb^34–183) (from UniProt P10244-1 34-183) (domain or fragment)”, the figures for the pKd in assay [1], in assay [2] and in assay [3] were 5.19, 5.49 and 5.31, respectively.

The record behind these values is article PMC9478404.
